No end group written: not given here.
Columns and labels:
[1] = biological target: T1, FPRL1 (Homo sapiens, UniProt P25090); assay: ERK phosphorylation in FPRL1/RBL cells (immunoblot); type: cell-based; settings: FPRL1/RBL cells
T1 construct: expressed in transfected cells; host or cells: rat basophil leukemia RBL-2H3 cells, kept under G418
T1 sequence (P25090 1-351): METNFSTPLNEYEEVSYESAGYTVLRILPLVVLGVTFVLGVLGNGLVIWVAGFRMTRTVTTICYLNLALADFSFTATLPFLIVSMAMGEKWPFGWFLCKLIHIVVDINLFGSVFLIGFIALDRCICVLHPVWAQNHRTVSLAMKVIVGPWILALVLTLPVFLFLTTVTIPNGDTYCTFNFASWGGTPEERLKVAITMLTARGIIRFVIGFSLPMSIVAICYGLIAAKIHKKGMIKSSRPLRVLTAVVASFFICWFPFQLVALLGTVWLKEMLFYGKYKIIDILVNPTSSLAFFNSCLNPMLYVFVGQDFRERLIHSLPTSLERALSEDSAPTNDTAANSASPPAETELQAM
Method: Vector/RBL cells, FPR/RBL cells, FPRL1/RBL cells, and HUVECs were cultured to confluence, and serum-starved. The stimulated cells (1×10^5 cells) were washed with PBS twice, dissolved in 1 ml of sample buffer (50 mM Tris-HCl, 100 mM NaCl, 0.1% SDS, 1% Nonidet P-40, 50 mM NaF, 1 mM Na3VO4, 1 μg/ml aprotinin, 1 μg/ml pepstatin, and 1 μg/ml leupeptin), heated at 95° C. for 30 seconds, separated with SDS-PAGE, and then, transferred to a nitrocellulose film. Immunoblot was conducted using anti-phospho-ERK (extracellular signal regulated kinase)1/2 (Thr^202/Tyr^204)(Cell Signaling Technology, Beverly, Mass., USA), anti-ERK1/2 (Cell Signaling Technology, Beverly, Mass., USA), anti-CTGF (Abcam, Cambridge, Mass., USA), anti-Actin (Sigma, St. Louis, Mo., USA), or anti-Flag (Sigma, St. Louis, Mo., USA) antibody, and then, the film was visualized with a chemiluminescence substrate (Amersham Pharmacia).
To confirm this, the inventors obtained conditioned medium (CM) in HUVEC treated with VEGF-A, and FPRL1-overexpressing cells FPRL1/RBL were treated therewith in the concentration of 10 ng/ml or 50 ng/ml for 8 hours. At this time, as positive control, FPRL1 agonistic peptide WKYMVm (Trp-Lys-Tyr-Met-Val-D-Met, SEQ ID NO. 1) was treated with 10 nM.
After the treatment, immunoblot was conducted on cell lysate that was transferred to a nitrocellulose film with anti-phospho ERK (extracellular signal regulated kinase)1/2 and anti-ERK1/2 antibody (Cell Signaling Technology, Beverly, Mass., USA), and then, the film was visualized with a chemiluminescence substrate (Amersham Pharmacia), and the results are shown in FIG. 1.
Meanwhile, the above described vector/RBL, FPR/RBL, or FPRL1/RBL cells were respectively treated with the above conditioned medium or VEGF-A at the concentration of 10 ng/ml for 8 hours, and positive control was treated with 10 nM of agonistic peptide WKYMVm (SEQ ID NO. 1).
As described in the <Experiment method 5>, FPRL1/RBL cells were treated with 40 ug of the HPLC fraction of the conditioned medium for 5 minutes, and the result confirming whether ERK phosphorylation occurred as described in the <Experiment result 1> was shown in FIG. 3.
To confirm whether the purified proteins induce ERK phosphorylation in FPRL1/RBL cells, immunoblot was conducted as described in the <Experiment result 1>, and the results are shown in FIG. 9.
ERK phosphorylation induction of CTGF linker polypeptide was compared to recombinant human CTGF (rhCTGF). Specifically, FPRL1/RBL cells were treated with CTGF linker polypeptide and rhCTGF for 5 minutes at various concentrations, ERK phosphorylation was measured, and the results are shown in FIG. 11. […]

[2] = tested on: HUVECs; assay: HUVEC tube formation on Matrigel; type: cell-based, human
Method: Meanwhile, to analyze tube formation, HUVECs were inoculated on the previously polymerized Matrigel (BD Biosciences) layer together with a certain amount of linker polypeptide, rhCTGF or VEGF-A165. After culturing for 18 hours, the shape of the cells was observed by phase-contrast microscopy, and photographed with 40× magnification. By measuring the length of tubes 5 times in LPF (low-power fields) randomly selected from each well using image-Pro Plus v4.5 (Media Cybernetics, Silver Spring, Md.), the degree of tube formation was quantified.
First, 20 ng/ml of VEGF-A was administered to HUVECs, the degree of cell proliferation, cell migration, or tube formation was confirmed by the <Experiment method 9>, and the results are shown in FIGS. 22 to 24. At this time, FPRL1 antagonist WRW4 was additionally added.

[3] = biological target: T2, FPRL1 in HUVECs (Homo sapiens, UniProt P25090); assay: Flow cytometry binding of biotinylated linker polypeptide in HUVECs
T2 construct: endogenous in cells; host or cells: HUVECs
T2 sequence (P25090 1-351): T1 sequence (P25090 1-351)
Method: To evaluate the degree of binding of linker polypeptide corresponding to the link region of human CTGF, linker polypeptide was labeled using a EZ-Link Micro Sulfo-NHS-LC-Biotinylation kit (Pierce Chemical Co., Rockford, Ill., USA) according to the manufacturer's instruction. The linker polypeptide was cultured at room temperature for 1 hour in PBS with 9 mM sulfo-NHS-LC-biotin (Pierce Chemical Co., Rockford, Ill., USA). During biotinylation, vector/RBL cells, FPR/RBL cells, FPRL1/RBL cells, or HUVECs were treated with trypsin, and collected, and then, treated with rabbit serum at room temperature for 30 minutes. After culturing the biotinylated linker polypeptide in the ice for 30 minutes, the cells were shortly washed with ice-cold PBS, cultured with antihuman fluoroscein-5-isothiocyanate (FITC)-conjugated streptavidin (Pierce Chemical Co.), and then, washed with ice-cold PBS, and fixed with 1% formaldehyde solution. And then, they were analyzed using FACS Caliber system (BD Biosciences, San Jose, Calif.) with CellQuest and WinMDI 2.9 software according to previously known method (He, R., Sang, H. & Ye, R. D. Serum amyloid A induces IL-8 secretion through a G protein-coupled receptor, FPRL1/LXA4R. Blood 101, 1572-1581, 2003).
It was examined whether the CTGF linker polypeptide binds to FPRL1 in HUVECs as described in the <Experiment method 7>, and the results are shown in FIG. 13. […]

Substance	effect of antagonist on ERK phosphorylation induced by CTGF linker polypeptide or rhCTGF ([1]; 10 nM CTGF linker polypeptide or rhCTGF, WRW4 10 uM)	effect of antagonist on HUVEC tube formation induced by VEGF-A ([2]; VEGF-A 20 ng/ml, WRW4 10 uM)	effect of antagonist on HUVEC tube formation induced by CTGF linker polypeptide ([2]; WRW4 10 uM)	effect of antagonist on linker polypeptide binding in HUVECs ([3]; WRW4 10 uM with 10 nM CTGF linker polypeptide)	ERK phosphorylation compared to rhCTGF ([1]; 10 nM)	ERK phosphorylation compared to rhCTGF ([1]; various concentrations, 5 minutes)	tube formation of HUVECs ([2]; 18 hours, compared to recombinant CTGF)	binding of linker polypeptide in HUVECs (flow cytometry shift) ([3]; 10 nM, 30 minutes, compared to vehicle)
WRWWWW (FPRL1 antagonist) [WRW4]	ERK phosphorylation is inhibited	the tube formation is not induced	the tube formation is not be induced	the shift is not observed				
EWVCDEPKDQTVVGPALAAYRLEDTFGPDPTMIRANCLV (EWVCDEPKDQTVVGPALAAYRLEDTFGPDPTMIRANCLV-NH2; cysteine pairing not given here) [CTGF linker polypeptide]					induces ERK phosphorylation to a similar level to rhCTGF	induces ERK phosphorylation to a similar level to rhCTGF	induces tube formation of HUVECs more effectively than recombinant CTGF	average value shifts right

Source: patent publication US8859496B2, “Pharmaceutical composition using connective-tissue growth factor” (Postech Academy-Industry Foundation, priority 2010, dated 2014)
